Substrate: CC(=O)C=O
Test: purified protein
Type: biochemical, Saccharomyces cerevisiae
Details: two-substrate sequential model (model 2), co-substrate glutathione, 70 mM potassium phosphate pH 6.5, 30°C, no glyoxalase II

B1: yeast glyoxalase I (EC 4.4.1.5); glyoxalase I from Saccharomyces cerevisiae (Sigma) (Saccharomyces cerevisiae S288C) (protein)
chain: MSTDSTRYPIQIEKASNDPTLLLNHTCLRVKDPARTVKFYTEHFGMKLLSRKDFEEAKFSLYFLSFPKDDIPKNKNGEPDVFSAHGVLELTHNWGTEKNPDYKINNGNEEPHRGFGHICFSVSDINKTCEELESQGVKFKKRLSEGRQKDIAFALGPDGYWIELITYSREGQEYPKGSVGNKFNHTMIRIKNPTRSLEFYQNVLGMKLLRTSEHESAKFTLYFLGYGVPKTDSVFSCESVLELTHNWGTENDPNFHYHNGNSEPQGYGHICISCDDAGALCKEIEVKYGDKIQWSPKFNQGRMKNIAFLKDPDGYSIEVVPHGLIA
notes: no tags or mass told
For B1, the Km was 1200 ± 190 µM and the kcat was “(1.7±0.38)×10^5 min^−1”.
